Target: T1, STAT3 (Signal Transducer and Activator of Transcription 3) (mouse, UniProt P42227 2-770)
T1 construct: Detected by anti-STAT3 Western blot in PKC immunoprecipitates
Assay: co-immunoprecipitation from primary keratinocyte lysates, anti-STAT3 Western blot
Method: FIG. 23 identifies a specific interaction between STAT3 and PKCδ in primary skin keratinocytes. Primary keratinocytes were either untreated (upper panel) or infected for 1 hour with isoform specific, recombinant PKC α, δ, η or ζ adenoviruses (lower panel). Cells were extracted and immunoprecipitated (IP) with isoform specific PKC antibodies. The immunoprecipitates were subjected to Western blot analysis using anti-PKCs or anti-STAT3 antibodies.

T1 sequence (P42227 2-770 limits assumed): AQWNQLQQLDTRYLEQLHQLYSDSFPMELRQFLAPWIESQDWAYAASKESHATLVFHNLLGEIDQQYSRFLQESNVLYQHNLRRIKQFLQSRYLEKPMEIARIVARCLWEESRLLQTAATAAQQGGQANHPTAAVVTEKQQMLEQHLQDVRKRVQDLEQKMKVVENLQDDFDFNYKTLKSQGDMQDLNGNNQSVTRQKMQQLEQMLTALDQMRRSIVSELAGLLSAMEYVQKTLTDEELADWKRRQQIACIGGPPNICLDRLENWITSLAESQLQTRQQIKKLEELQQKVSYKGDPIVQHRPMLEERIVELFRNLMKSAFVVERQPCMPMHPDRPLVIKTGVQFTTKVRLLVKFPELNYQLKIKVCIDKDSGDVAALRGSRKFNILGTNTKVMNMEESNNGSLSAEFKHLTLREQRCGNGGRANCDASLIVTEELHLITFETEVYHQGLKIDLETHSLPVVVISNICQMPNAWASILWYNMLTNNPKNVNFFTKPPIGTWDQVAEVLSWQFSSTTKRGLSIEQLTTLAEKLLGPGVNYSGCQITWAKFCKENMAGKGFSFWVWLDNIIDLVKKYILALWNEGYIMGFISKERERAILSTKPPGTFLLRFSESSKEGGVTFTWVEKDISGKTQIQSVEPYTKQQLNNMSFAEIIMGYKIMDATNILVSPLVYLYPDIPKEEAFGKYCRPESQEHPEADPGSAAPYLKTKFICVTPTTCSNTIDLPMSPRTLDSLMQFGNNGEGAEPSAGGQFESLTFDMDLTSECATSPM

| binding result | Binder |
| --- | --- |
| no binding | PKCζ (protein kinase C zeta) (enzyme, mouse, UniProt Q02956 1-592, looked up) MPSRTDPKMDRSGGRVRLKAHYGGDILITSVDAMTTFKDLCEEVRDMCGLHQQHPLTLKWVDSEGDPCTVSSQMELEEAFRLVCQGRDEVLIIHVFPSIPEQPGMPCPGEDKSIYRRGARRWRKLYRANGHLFQAKRFNRGAYCGQCSERIWGLSRQGYRCINCKLLVHKRCHVLVPLTCRRHMDSVMPSQEPPVDDKNDGVDLPSEETDGIAYISSSRKHDNIKDDSEDLKPVIDGVDGIKISQGLGLQDFDLIRVIGRGSYAKVLLVRLKKNDQIYAMKVVKKELVHDDEDIDWVQTEKHVFEQASSNPFLVGLHSCFQTTSRLFLVIEYVNGGDLMFHMQRQRKLPEEHARFYAAEICIALNFLHERGIIYRDLKLDNVLLDADGHIKLTDYGMCKEGLGPGDTTSTFCGTPNYIAPEILRGEEYGFSVDWWALGVLMFEMMAGRSPFDIITDNPDMNTEDYLFQVILEKPIRIPRFLSVKASHVLKGFLNKDPKERLGCRPQTGFSDIKSHAFFRSIDWDLLEKKQTLPPFQPQITDDYGLDNFDTQFTSEPVQLTPDDEDVIKRIDQSEFEGFEYINPLLLSAEESV |
| no binding | PKCη (protein kinase C eta) (enzyme, mouse, UniProt P23298 1-683, looked up) MSSGTMKFNGYLRVRIGEAVGLQPTRWSLRHSLFKKGHQLLDPYLTVSVDQVRVGQTSTKQKTNKPTYNEEFCANVTDGGHLELAVFHETPLGYDHFVANCTLQFQELLRTAGTSDTFEGWVDLEPEGKVFVVITLTGSFTEATLQRDRIFKHFTRKRQRAMRRRVHQVNGHKFMATYLRQPTYCSHCREFIWGVFGKQGYQCQVCTCVVHKRCHHLIVTACTCQNNINKVDAKIAEQRFGINIPHKFNVHNYKVPTFCDHCGSLLWGIMRQGLQCKICKMNVHIRCQANVAPNCGVNAVELAKTLAGMGLQPGNISPTSKLISRSTLRRQGKEGSKEGNGIGVNSSSRFGIDNFEFIRVLGKGSFGKVMLARIKETGELYAVKVLKKDVILQDDDVECTMTEKRILSLARNHPFLTQLFCCFQTPDRLFFVMEFVNGGDLMFHIQKSRRFDEARARFYAAEIISALMFLHEKGIIYRDLKLDNVLLDHEGHCKLADFGMCKEGICNGVTTATFCGTPDYIAPEILQEMLYGPAVDWWAMGVLLYEMLCGHAPFEAENEDDLFEAILNDEVVYPTWLHEDATGILKSFMTKNPTMRLGSLTQGGEHEILRHPFFKEIDWAQLNHRQLEPPFRPRIKSREDVSNFDPDFIKEEPVLTPIDEGHLPMINQDEFRNFSYVSPELQL |

Second part, the binder before the results:

| Binder | binding result |
| --- | --- |
| PKCα (protein kinase C alpha) (enzyme) not shown | no binding |
| PKCε (protein kinase C epsilon) (enzyme, mouse, UniProt P16054 1-737, looked up) MVVFNGLLKIKICEAVSLKPTAWSLRHAVGPRPQTFLLDPYIALNVDDSRIGQTATKQKTNSPAWHDEFVTDVCNGRKIELAVFHDAPIGYDDFVANCTIQFEELLQNGSRHFEDWIDLEPEGKVYVIIDLSGSSGEAPKDNEERVFRERMRPRKRQGAVRRRVHQVNGHKFMATYLRQPTYCSHCRDFIWGVIGKQGYQCQVCTCVVHKRCHELIITKCAGLKKQETPDEVGSQRFSVNMPHKFGIHNYKVPTFCDHCGSLLWGLLRQGLQCKVCKMNVHRRCETNVAPNCGVDARGIAKVLADLGVTPDKITNSGQRRKKLAAGAESPQPASGNSPSEDDRSKSAPTSPCDQELKELENNIRKALSFDNRGEEHRASSATDGQLASPGENGEVRPGQAKRLGLDEFNFIKVLGKGSFGKVMLAELKGKDEVYAVKVLKKDVILQDDDVDCTMTEKRILALARKHPYLTQLYCCFQTKDRLFFVMEYVNGGDLMFQIQRSRKFDEPRSRFYAAEVTSALMFLHQHGVIYRDLKLDNILLDAEGHCKLADFGMCKEGIMNGVTTTTFCGTPDYIAPEILQELEYGPSVDWWALGVLMYEMMAGQPPFEADNEDDLFESILHDDVLYPVWLSKEAVSILKAFMTKNPHKRLGCVAAQNGEDAIKQHPFFKEIDWVLLEQKKIKPPFKPRIKTKRDVNNFDQDFTREEPILTLVDEAIIKQINQEEFKGFSYFGEDLMP | no binding |
